# Data from patent US20250136702A1 (NONA BIOSCIENCES SUZHOU, published 2025).
# Changes are numbered by the printed parent chain.
# T1: mouse LIFR-ECD protein (mouse, UniProt P42703 44-828)
# T1 construct: extracellular domain
# T1 sequence (looked up): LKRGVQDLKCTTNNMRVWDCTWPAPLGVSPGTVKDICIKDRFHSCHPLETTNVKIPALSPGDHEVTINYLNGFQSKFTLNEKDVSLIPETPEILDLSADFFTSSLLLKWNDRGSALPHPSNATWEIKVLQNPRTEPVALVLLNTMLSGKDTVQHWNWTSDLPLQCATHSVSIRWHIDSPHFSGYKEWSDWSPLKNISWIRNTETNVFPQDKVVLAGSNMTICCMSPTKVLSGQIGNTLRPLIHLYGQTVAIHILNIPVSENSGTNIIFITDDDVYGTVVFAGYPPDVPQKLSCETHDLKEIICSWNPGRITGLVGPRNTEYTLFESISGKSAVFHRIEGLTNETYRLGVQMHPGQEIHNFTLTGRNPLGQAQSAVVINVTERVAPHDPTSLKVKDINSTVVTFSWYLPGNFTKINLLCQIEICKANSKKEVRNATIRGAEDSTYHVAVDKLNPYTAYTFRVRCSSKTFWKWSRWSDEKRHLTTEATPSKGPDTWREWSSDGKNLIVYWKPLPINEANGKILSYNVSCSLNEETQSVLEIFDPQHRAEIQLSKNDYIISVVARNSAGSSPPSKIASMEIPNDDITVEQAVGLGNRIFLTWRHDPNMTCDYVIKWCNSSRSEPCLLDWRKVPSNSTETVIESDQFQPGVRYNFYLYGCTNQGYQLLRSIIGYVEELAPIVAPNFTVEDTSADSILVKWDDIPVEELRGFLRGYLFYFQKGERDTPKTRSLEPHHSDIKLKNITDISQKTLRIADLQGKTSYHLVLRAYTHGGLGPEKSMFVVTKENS
# T2: human LIFR expressed on the surface of 293T cells (human, UniProt P42702 45-1097)
# T2 construct: whole, on cells; also called HEK293T-huLIFR; huLIFR
# T2 sequence (looked up): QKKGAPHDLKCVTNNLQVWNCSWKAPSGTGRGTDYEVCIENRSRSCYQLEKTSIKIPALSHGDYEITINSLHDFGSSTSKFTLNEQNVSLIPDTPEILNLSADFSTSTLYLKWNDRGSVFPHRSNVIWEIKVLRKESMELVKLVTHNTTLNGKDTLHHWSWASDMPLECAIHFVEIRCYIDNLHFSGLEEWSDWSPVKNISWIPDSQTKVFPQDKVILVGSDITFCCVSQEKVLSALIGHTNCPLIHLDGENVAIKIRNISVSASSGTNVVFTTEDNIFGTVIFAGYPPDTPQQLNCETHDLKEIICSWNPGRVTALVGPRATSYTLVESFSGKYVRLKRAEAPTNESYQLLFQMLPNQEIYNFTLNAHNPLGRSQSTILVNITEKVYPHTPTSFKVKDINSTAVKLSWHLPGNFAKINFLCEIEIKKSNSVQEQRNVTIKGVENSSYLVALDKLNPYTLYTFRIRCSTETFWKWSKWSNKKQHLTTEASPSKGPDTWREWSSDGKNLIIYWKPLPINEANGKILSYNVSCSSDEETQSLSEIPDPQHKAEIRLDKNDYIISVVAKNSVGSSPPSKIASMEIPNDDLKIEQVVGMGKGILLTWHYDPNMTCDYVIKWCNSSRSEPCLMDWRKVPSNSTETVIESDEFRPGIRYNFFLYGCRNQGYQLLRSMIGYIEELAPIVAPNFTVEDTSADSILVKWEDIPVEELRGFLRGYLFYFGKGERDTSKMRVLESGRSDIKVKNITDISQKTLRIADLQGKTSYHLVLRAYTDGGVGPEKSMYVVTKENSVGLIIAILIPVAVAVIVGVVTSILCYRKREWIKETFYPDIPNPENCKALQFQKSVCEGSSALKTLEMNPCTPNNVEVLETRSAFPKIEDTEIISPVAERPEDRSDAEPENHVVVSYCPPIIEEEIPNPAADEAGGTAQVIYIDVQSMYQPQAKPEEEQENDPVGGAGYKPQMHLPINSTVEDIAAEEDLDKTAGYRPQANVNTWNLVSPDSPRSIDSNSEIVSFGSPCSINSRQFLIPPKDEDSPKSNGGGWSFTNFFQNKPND
# B1: PR301153 (antibody, IgG1, V domains shown)
# VH: QGQLVESGGGVVQPGRSLRLSCAASGFTFSSYGMHWVRQPPGKGLEWVAVIWFDGSNKYYADSVKGRFTISRDNSKNTVYLQMDSLRDEDTAVYYCARGQLVGDYWGQGTLVTVSS
# VL: not shown
# B2: PR301215 (antibody, human IgG1, kappa, V domains shown)
# VH: B1 VH with G2V, P40A, N57I, V79L, D84N, D88A, V93I, G103Q, Y105F, Q108R
# VL: DIQMTQSPSTLSASVGDRVTITCRASQSISSWLAWYQQKPGKAPNLLMYKASNLESGVPSRFSGSGSGTEFTLTITSLQPDDFASYYCQQYKSNPLTFGGGTKVEIKR
# B3: PR301218 (antibody, human IgG1, kappa, V domains shown)
# VH: B1 VH with G2V, P40A, N57V, V79L, D84N, D88A, V93I, G103Q, Y105F, Q108R
# VL: B2 VL
# B4: PR301195 (antibody, human IgG1, kappa, V domains shown)
# VH: QVQLVESGGGVVQPGRSLRLSCAASGFTFSSYGMNWVRQAPGKGLEWVAVIWFDGSIKYYADSVKGRFTISRDNSKNTLYLQMNSLRAEDTAIYYCARGQLVQDFWGRGTLVTVSS
# VL: B2 VL
# B5: PR301196 (antibody, human IgG1, kappa, V domains shown)
# VH: B4 VH
# VL: B2 VL with S56N, P59S, S85T
# B6: PR301177 (antibody, human IgG1, kappa, V domains shown)
# VH: QVQLVESGGGVVQPGRSLRLSCVASGFTFSSYGMNWVRQAPGKGLDWVTVIWFDGSNKYYADSVKGRFTISRDNSKNTLYLQMNSLRAEDTAMYYCARGERTLDLWGQGTLVTVSS
# VL: DIQMTQSPSTLSASVGDRVTITCRASQSISSWLAWYQQKPGKAPKLLIYKASSLESGVPSRFSGSGSGTEFSFTISSLQPDDFATYYCQQYKSFSPGGLTFGGGTKVEIKR
# B7: PR300516 (antibody, human IgG1, kappa, V domains shown)
# VH: QVQLVESGGGVVQPGRSLRLSCAASGFTFSSYGMHWVRQAPGKGLEWVAVIWYDGNNKYYADSVKGRFTISRDNSKNTLYLQMNSLRAEDTAVYYCARDGESSMVRGLLNWFDPWGQGTLVTVSS
# VL: not shown
# B8: PR301176 (antibody, IgG1, V domains shown)
# VH: QVQLVESGGGVVQPGRSLRLSCAASGFTFSSYGMDWVRQAPGKGLEWVAVIWYDGSNKFYADSVRGRFTISRDNSQNTLYLQMNSLRAEDTAVYYCARELWFGELLSPFDFWGQGTLVTVSS
# VL: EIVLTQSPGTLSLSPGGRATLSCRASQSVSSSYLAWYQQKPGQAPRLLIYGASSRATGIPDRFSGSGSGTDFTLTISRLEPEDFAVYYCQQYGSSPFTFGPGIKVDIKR
# B9: PR301152 (antibody, IgG1, V domains shown)
# VH: B8 VH with F59Y, R65K, Q76K
# VL: KIVLTQSPGTLSLSPGGRATLSCRASQSISSSYLAWYQQKPGQAPRLLIYAASNRATGIPDRFSGSGSGTDFTLTISRLEPEDFAVYYCQQYGSSPFTFGPGIKVDIKR
# B10: PR301168 (antibody, IgG1, V domains shown)
# VH: B8 VH with F109L
# VL: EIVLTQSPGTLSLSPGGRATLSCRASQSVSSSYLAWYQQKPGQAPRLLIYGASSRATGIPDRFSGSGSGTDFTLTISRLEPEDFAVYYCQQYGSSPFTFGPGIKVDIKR
# notes: also called PR3001168
# B11: PR301211 (antibody, human IgG1, kappa, V domains shown)
# VH: B4 VH with N35H, I57L, T69A, Y94F, F105L
# VL: B2 VL
# B12: PR301127 (antibody, human IgG1, kappa, V domains shown)
# VH: EVQLLQSGGGLVQPGGSLRLSCAASGFTFSNYAMTWVRQAPGKGLEWVSTISGSGAFTYYADAVKGRFTISRVNSKNSLDLQMNSLRAEDTAVYYCAKGGILTGFDNWGQGTLVTVSS
# VL: B6 VL
# Target: T1, mouse LIFR-ECD protein
# Experiment: ELISA on plate-coated mouse LIFR-ECD (1 ug/mL), anti-human IgG Fc-HRP, OD450nm
# Experimental: The binding ability of the 15 antibodies prepared in examples 1-4 of the present invention to the LIFR-ECD protein was detected based on the ELISA assay method. The binding affinity of different antibodies was determined by comparing their dose response binding curves to LIFR-ECD protein. The specific experimental process is as follows: First, human LIFR-ECD, monkey LIFR-ECD and mouse LIFR-ECD proteins are diluted to a concentration of 1 μg/mL, added to a 96-well plate (100 μL per well) and placed at 4° C. overnight. The 96-well plates were washed three times with PBST solution and then placed at 37° C. for 1 h with the addition of 2% BSA in PBS solution. Antibody seris dilution is prepared and (100 nM, 10-fold-dilution), added to a 96-well plate and incubate at 37° C. for 1 h. After washing three times with PBST solution, add anti-human IgG Fc-HRP secondary antibody (for 5000× dilution) and incubate at 37° C. for 30-60 min. After washing three times with PBST solution, add TMB color development solution for 5-15 minutes, and then add termination solution to ternimate the color development.
row,binding result,Binder
1,no binding (tested: 100 nM),B1
2,no binding (tested: 100 nM),B2
3,no binding (tested: 100 nM),B3
4,no binding (tested: 100 nM),B4
5,no binding (tested: 100 nM),B5
6,no binding (tested: 100 nM),B6
7,no binding (tested: 100 nM),B7
8,no binding (tested: 100 nM),B8
9,no binding (tested: 100 nM),B9
10,no binding (tested: 100 nM),B10

# Target: T2, human LIFR expressed on the surface of …
# Experiment: flow cytometry on HEK293T-huLIFR cells, median fluorescence, span of the fitted curve
row,Span,Binder
1,15900,B11
2,19800,B7
3,20100,B9
4,19400,B10

# Target: T3, human LIFR/gp130 heterodimer expressed on the surface of 293T cells (human, UniProt P42702 45-1097; P40189 23-918)
# T3 construct: whole, on cells; also called HEK293T-huLIFR/gp130; huLIFR/gp130
# Experiment: flow cytometry on HEK293T-huLIFR/gp130 cells, median fluorescence, span of the fitted curve
# T3 sequence (P40189 23-918, one chain of several): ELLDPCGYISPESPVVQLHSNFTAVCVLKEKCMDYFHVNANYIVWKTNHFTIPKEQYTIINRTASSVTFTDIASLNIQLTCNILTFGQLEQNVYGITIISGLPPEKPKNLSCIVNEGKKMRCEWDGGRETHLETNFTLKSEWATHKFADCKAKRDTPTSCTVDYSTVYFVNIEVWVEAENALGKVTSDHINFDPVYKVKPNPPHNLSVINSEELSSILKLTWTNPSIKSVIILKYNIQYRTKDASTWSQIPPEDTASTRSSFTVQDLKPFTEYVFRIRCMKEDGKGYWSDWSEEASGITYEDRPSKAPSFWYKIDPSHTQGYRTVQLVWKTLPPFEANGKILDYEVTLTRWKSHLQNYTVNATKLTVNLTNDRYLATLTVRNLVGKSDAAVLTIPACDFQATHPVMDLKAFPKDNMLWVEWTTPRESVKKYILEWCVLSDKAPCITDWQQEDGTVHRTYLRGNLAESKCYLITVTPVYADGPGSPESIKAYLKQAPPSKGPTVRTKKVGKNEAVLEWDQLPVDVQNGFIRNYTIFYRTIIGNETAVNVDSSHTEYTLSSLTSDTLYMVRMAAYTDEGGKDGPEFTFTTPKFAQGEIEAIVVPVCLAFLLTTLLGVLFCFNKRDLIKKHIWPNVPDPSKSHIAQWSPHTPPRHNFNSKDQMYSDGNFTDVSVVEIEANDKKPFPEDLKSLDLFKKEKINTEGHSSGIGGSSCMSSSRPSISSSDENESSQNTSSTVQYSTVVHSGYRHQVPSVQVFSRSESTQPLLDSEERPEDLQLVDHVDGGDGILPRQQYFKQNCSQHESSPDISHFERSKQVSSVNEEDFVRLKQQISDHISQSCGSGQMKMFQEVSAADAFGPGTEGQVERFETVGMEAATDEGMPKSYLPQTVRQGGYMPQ
row,Span,Binder
1,5800,B11
2,55.6,B12
3,6880,B7
4,7210,B9
5,6950,B10
